Measurements from publication PMC7840129, “Structural basis for heme-dependent NCoR binding to the transcriptional repressor REV-ERBβ” (Science Advances, 2021).
Like-named read-outs stand apart in the source and are kept apart here.

Target: T1, Apo REV-ERBβ LBD (Homo sapiens, UniProt Q14995)
T1 construct: The human REV-ERBβ LBD (residues 381 to 579) was previously cloned; 6xHis with 3C protease cleavage site (N, cleaved yes); made in house; host or cells: E. coli BL21(DE3)
T1 sequence (Q14995 381-579): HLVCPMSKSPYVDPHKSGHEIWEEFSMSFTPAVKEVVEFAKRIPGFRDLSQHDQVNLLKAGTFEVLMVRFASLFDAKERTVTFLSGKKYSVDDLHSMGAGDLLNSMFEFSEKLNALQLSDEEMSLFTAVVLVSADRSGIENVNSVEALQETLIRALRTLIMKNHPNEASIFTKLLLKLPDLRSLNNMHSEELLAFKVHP
Experiment: ITC, NCoR RID constructs with apo REV-ERBβ LBD
Type: binding
Details: WT RID; for Kd: LBD 150 μM (2 × 20 injections) into 15 μM RID, pH 7.4, 25°C, two nonsymmetric sites, microscopic K model
Description: Human REV-ERBβ LBD was expressed in BL21(DE3) Escherichia coli cells with an N-terminal hexahistidine (6xHis) tag separated by a 3C protease cleavage site. Expression was performed using auto-induction media: Cells were grown at 37°C for 5 hours, 30°C for 1 hour, and 18°C for 16 hours before harvesting by centrifugation. Pellets were resuspended in potassium phosphate lysis buffer [40 mM potassium phosphate (pH 7.4), 500 mM KCl, 15 mM imidazole, and 1 mM dithiothreitol (DTT)] supplemented with leupeptin, pepstatin A, lysozyme, and deoxyribonuclease (DNase) I and sonicated on ice. […] A 5-ml aliquot of 6xHis-tagged protein was purified by size exclusion chromatography using a Superdex 75 column equilibrated in time-resolved fluorescence energy transfer (TR-FRET) assay buffer [20 mM potassium phosphate (pH 7.4), 50 mM KCl, and 0.5 mM EDTA]; purified aliquots were stored at −80°C for TR-FRET assays. To cleave the 6xHis tag from the remaining protein, it was incubated overnight with 3C protease (generated in-house) via dialysis; then, protein was reloaded onto the HisTrap columns, and the flow-through was collected. Last, aggregates were removed by size exclusion chromatography using a Superdex 75 column and Hepes gel filtration buffer [20 mM Hepes (pH 7.4), 50 mM KCl, and 0.5 mM EDTA]. Greater than 95% purity was confirmed by SDS-PAGE. Protein was aliquoted and stored at −80°C.
ITC experiments were performed using a MicroCal iTC200. All experiments were solvent-matched and contained 0.1% DMSO (peptide vehicle) and 0.2% 0.2 M solution of NaOH (heme vehicle) final concentrations. NITPIC software ([37]) was used to calculate baselines and integrate curves and prepare experimental data for fitting in SEDPHAT, which was used to generate final binding affinity and thermodynamic parameter measurements ([38]).Final figures were exported to GUSSI for publication-quality figure preparation ([39]).
[…] REV-ERBβ LBD in the syringe was titrated into the RID in the sample cell as described above, with the exception that a total of 4 molar equivalents were titrated over 20 injections. […] For apo LBD into WT RID, data were fit to A + B ↔ AB + B ↔ BA + A ↔ BAB, with two nonsymmetric sites, microscopic K model in SEDPHAT. For apo LBD into ΔID2, data were fit to an A + B ↔ AB hetero-association model in SEDPHAT. For heme-bound LBD into WT RID, data were fit to an A + B ↔ AB hetero-association model in SEDPHAT.
NCoR RID constructs (including WT, ΔID1, ΔID2, and ΔID1ΔID2) were transformed into BL21(DE3) E. coli cells, which were grown in 2 liters of Terrific Broth media [yeast extract (24 g/liter), tryptone (12 g/liter), KH2PO4 ([…]), K2HPO4 ([…]), and glycerol (4 ml/liter)] at 37°C until OD600 reached 0.7 to 0.8. Expression was induced with 0.75 mM IPTG for 2 hours at 37°C before cells were harvested by centrifugation. Pellets were washed 1× with phosphate-buffered saline and stored at −80°C until purification. Pellets were resuspended on ice in Hepes lysis buffer [25 mM Hepes (pH 7.4), 150 mM NaCl, 2 M urea, and 15 mM imidazole] supplemented with 1 mM DTT, pepstatin A, leupeptin, lysozyme, DNase I, phenylmethylsulfonyl fluoride, and 0.1% Tween 20, and cell slurry was sonicated on ice. Lysed cells were centrifuged at 20,000g for 30 min at 4°C, and soluble lysate was filtered before IMAC purification using 2 × 5 ml HisTrap columns (GE Healthcare) affixed to an ÄKTA pure; elution buffer was 25 mM Hepes (pH 7.4), 150 mM NaCl, and 500 mM imidazole. Fractions were pooled; additional protease inhibitors were added, and protein was dialyzed against 25 mM Hepes (pH 7.0), 150 mM NaCl, and 1 mM DTT with Tobacco etch virus (TEV) protease to cleave the Trx-6xHis tag at 4°C overnight. Cleaved protein was reloaded on HisTrap columns and eluted with 50 mM bis-tris (pH 6.7), 150 mM NaCl, and 1 mM DTT. […]

- Kd (95% CI, read-out: KD, Site 1): 0.012 µM
- Kd (95% CI, read-out: KD, Site 2): 0.74 µM
- TΔS, Site 1 (site 1, 25°C, 95% CI): 10.5 kJ/mol
- ΔG, Site 1 (site 1, 25°C, 95% CI): -45.2 kJ/mol
- ΔH, Site 1 (site 1, 25°C, 95% CI): -34.7 kJ/mol
- TΔS, Site 2 (site 2, 25°C, 95% CI): 12 (95% CI: 11 to13) kcal/mol
- ΔG, Site 2 (site 2, 25°C, 95% CI): -35.1 kJ/mol
- ΔH, Site 2 (site 2, 25°C, 95% CI): 13.4 kJ/mol
B1: WT RID: mouse NCoR RID (residues 1942 to 2208 in the X50 splice variant) (protein, UniProt Q60974 1942-2208, looked up, fragment)
chain: TITAANFIDVIITRQIASDKDARERGSQSSDSSSSLSSHRYETASDAIEVISPASSPAPPQEKPQAYQPDMVKANQAENESTRQYEGPLHHYRSQQESPSPQQQPPLPPSSQSEGMGQVPRTHRLITLADHICQIITQDFARNQVPSQASTSTFQTSPSALSSTPVRTKTSSRYSPESQSQTVLHPRPGPRVSPENLVDKSRGSRPGKSPERSHIPSEPYEPISPPQGPAVHEKQDSMLLLSQRGVDPAEQRSDSRSPGSISYLPSF
modifications: X50 splice variant
- LBD:RID stoichiometry: two apo LBDs interact with one RID, most likely with positive cooperativity
